Where two headings read alike, the source gives them in different places.
Columns and labels:
[1] = test system: GST-PDE6δ; test: GST-PDE6δ pull-down and release by Arl2/Arl3 from IMCD3 lysates; format: binding; conditions: 20 μM GST-PDE6δ on GSH-beads, 20 μM Arl2 or Arl3, 1 h 4 °C, anti-GFP immunoblot
Method: Figure 5 INPP5E ciliary enrichment is dependent on high affinity to PDE6δ. […] White bar indicates 5 μm. (b) Bar chart showing ratio of GFP intensity in cilia to the total GFP intensity, indicating the enrichment of GFP-tagged protein in cilia. […] Error bars indicate s.d., n≥35 (P<0.05; Student’s t-test). […] Formed complexes in the pulldown experiment were incubated with Arl2 or Arl3 as indicated. The amount of GFP-tagged interacting proteins bound to GST-PDE6δ was detected by immunoblotting with an antibody against GFP.
IMCD3 cells stably expressing GFP-INPP5E(WT) or GFP-INPP5E(KS) were lysed in lysis buffer containing 75 mM Hepes pH 7.5, 150 mM KCl, 1.5 mM EGTA, 1.5 mM MgCl2, 15% glycerol, 0.2% NP-40 and one protease inhibitor cocktail tablet (Roche). Cell lysates were cleared and supernatants were incubated for 1 h at 4 °C with 100 μl GSH-beads conjugated with 20 μM GST-PDE6δ. For the release assay, 20 μM of either Arl2 or Arl3 were added to the previous mixture and incubated for further 1 h at 4 °C. After 5 times washing with the lysis buffer, the complexes were analysed by western blotting using anti-GFP antibody (1:500; Santa Cruz Biotechnology sc-9996) and anti GST (1:5,000; home source). Full scans of western blots are provided in Supplementary Fig. 6.

[2] = test system: PDE6δ; test: Stopped-flow fluorescence polarization kinetics of mantGppNHp-loaded Arl proteins with PDE6δ; format: binding; conditions: for association rate constant kon with PDE6δ: 0.2 μM mantGppNHp-loaded Arl protein, increasing PDE6δ; for association rate constant kon with PDE6δ / dissociation rate constant koff from PDE6δ: 20 °C; for association rate constant kon with PDE6δ / dissociation rate constant koff from PDE6δ / Kd: n=4; for dissociation rate constant koff from PDE6δ: 2 μM PDE6δ with 0.2 μM mantGppNHp-loaded Arl protein, 200-fold excess unlabelled Arl protein; for Kd: calculated from kinetic constants, ± s.d., read-out: equilibrium dissociation constant Kd with PDE6δ (Kd=koff/kon)
Method: Previously we have shown that the N-terminal helix of Arl3 is important to release myristoylated cargo from a complex with the shuttle factor UNC119 (ref. [30]). To find out whether the N-terminus of Arl3 and/or Arl2 has a similar if any role in the interaction with PDE6δ, fluorescence polarization measurements using full-length Arl3 (Arl3^fl) or an N-terminal truncated form (Arl3^ΔN) were performed. […] To investigate the role of the N-terminal helix of Arl3 in the release mechanism, we measured association and dissociation rate constants to determine the affinity of PDE6δ towards Arl2 and Arl3 in both full-length and N-terminal truncated forms. Association rate constants between the four proteins Arl3^fl, Arl3^ΔN, Arl2^fl and Arl2^ΔN are rather similar although association is almost twice as fast for full-length Arl3 as compared with Arl2 (Fig. 3a,b). […] The Kd values for Arl2^fl and Arl3^fl differ from previously determined values, likely because of the different techniques used.
Figure 3 Contribution of the N-terminal helix of Arl3 to the binding affinity with PDE6δ. (a) Stopped-flow fluorescence polarization kinetic measurements of the association of 0.2 μM mantGppNHp loaded Arl proteins with increasing concentrations of PDE6δ. The observed pseudo-first order rate constants (kobs) are plotted against PDE6δ concentration. (b) Bar charts of the association rate constants (kon) determined in a. (c,d) Stopped-flow fluorescence polarization kinetic experiments where complexes of 2 μM PDE6δ with 0.2 μM of full-length (Arl^fl) or N-terminally deleted (Arl^ΔN) mantGppNHp loaded Arl proteins as indicated were mixed with 200-fold excess of unlabelled Arl proteins to determine koff. (e) Bar charts of the dissociation rate constants (koff) from experiments in c,d. (f) Bar charts of the equilibrium dissociation constants (Kd) of complexes between PDE6δ and Arl proteins as determined from the kinetic constants in c,e. Error bars indicate s.d., n=4. TEXT PRINTED IN THE PICTURE: (b) Arl3^fl: kon (μM^-1s^-1): 5.97 | (b) Arl3^ΔN: kon (μM^-1s^-1): 4.25 | (b) Arl2^fl: kon (μM^-1s^-1): 2.25 | (b) Arl2^ΔN: kon (μM^-1s^-1): 3.09 | (e) Arl3^fl: koff (s^-1): 0.035 | (e) Arl3^ΔN: koff (s^-1): 0.92 | (e) Arl2^fl: koff (s^-1): 0.33 | (e) Arl2^ΔN: koff (s^-1): 0.98 | (f) Arl3^fl: kd (nM): 5.84 | (f) Arl3^ΔN: kd (nM): 217 | (f) Arl2^fl: kd (nM): 149 | (f) Arl2^ΔN: kd (nM): 319
All fluorescence polarization measurements were performed at 20 °C in a buffer containing 25 mM Tris-HCl (pH 7.5), 50 mM NaCl and 3 mM DTE. For the titration measurement, data were recorded with Fluoromax-4 spectrophotometer (HORIBA Jobin Yvon, Munich, Germany) with excitation and emission wavelengths at 530 and 580 nm for TAMRA-labelled INPP5E peptide and at 495 and 520 nm for fluorescein-labelled Rheb peptide. The kinetic measurements were monitored by a stopped-flow apparatus (Applied Photophysics) in the polarization mode using an excitation wavelength of 366 nm and filter with 420 nm cutoff for mantGppNHp bound Arl protein, excitation wavelength of 495 nm and filter with 520 nm cutoff for fluorescein-labelled Rheb peptide and excitation wavelength of 530 nm and filter with 570 nm cutoff for TAMRA-labelled INPP5E peptide. Data analysis was done with GraFit 5.0 program (Erithracus Software). Concentrations used for each experiment are indicated in the corresponding figure legend.

Kd ([2]; listed as Arl2^ΔN) [nM] | Kd [2] [nM] | Molecule | release from GST-PDE6δ by Arl2·GppNHp / Arl3·GppNHp [1] | difference in koff / residence time with PDE6δ, full-length versus N-terminally deleted form [2] | association rate constant kon with PDE6δ [2] [M⁻¹ s⁻¹] | association rate constant kon with PDE6δ ([2]; listed as Arl2^ΔN) [M⁻¹ s⁻¹] | dissociation rate constant koff from PDE6δ [2] [s⁻¹] | dissociation rate constant koff from PDE6δ ([2]; listed as Arl2^ΔN) [s⁻¹]
– | – | INPP5E(WT): GFP (LAP)-tagged mouse INPP5E stably expressed in IMCD3 cells (protein, left off: LAP tag (GFP-TEV-site-S-peptide), N-terminal, kept, GFP (LAP)-tagged mouse INPP5E stably expressed in IMCD3 cells) MPSKSACLRHTEAPGQLEGRMLQGQPPNTEKKLIPTPGFLPASDSQGSETNPMPPFSIPAKTSNQNPQTKANLITPQPPIRPKLERTLSLDDKGWRRRRFRGSQEDLTVQNGASPCRGSLQDSVAQSPAYSRPLPCLSTSLQEIPKSRRATGSEGGSPSLWSDCLSGMISTSLDLLHRDAASGGPPSRLASLHASHTPPAMDLSIASSSLRTANKVDPEHTDYKLRMQTRLVRAHSNLGPSRPRSPLAGDDHSIHSARSFSLLAPIRTKDIRSRSYLEGSLLASGALLGAEELARYFPDRNMALFVATWNMQGQKELPASLDEFLLPTEADYTQDLYVIGIQEGCSDRREWETRLQETLGPQYVLLSSAAHGVLYMSLFIRRDLIWFCSEVEYSTVTTRIVSQIKTKGALGVSFTFFGTSFLFITSHFTSGDGKVAERLLDYSRTIQALALPRNVPDTNPYRSSAGDVTTRFDEVFWFGDFNFRLSGGRVAVEAFLKQKPEVDVLALLQHDQLTREMKKGSIFRGFEEAEIHFLPSYKFDIGKDTYDSTSKQRTPSYTDRVLYKSRHKGDICPMKYSSCPGIKTSDHRPVYGLFQVKVRPGRDNIPLAAGKFDRELYLIGIKRRISKEIQRQEALKSQSSSAVC | specifically released only by Arl3·GppNHp | – | – | – | – | –
– | – | INPP5E(KS) mutant: GFP-tagged INPP5E S641K/V643S protein stably expressed in IMCD3 cells (protein, left off: LAP tag (GFP-TEV-site-S-peptide), N-terminal, kept, GFP-tagged INPP5E S641K/V643S protein stably expressed in IMCD3 cells) MPSKSACLRHTEAPGQLEGRMLQGQPPNTEKKLIPTPGFLPASDSQGSETNPMPPFSIPAKTSNQNPQTKANLITPQPPIRPKLERTLSLDDKGWRRRRFRGSQEDLTVQNGASPCRGSLQDSVAQSPAYSRPLPCLSTSLQEIPKSRRATGSEGGSPSLWSDCLSGMISTSLDLLHRDAASGGPPSRLASLHASHTPPAMDLSIASSSLRTANKVDPEHTDYKLRMQTRLVRAHSNLGPSRPRSPLAGDDHSIHSARSFSLLAPIRTKDIRSRSYLEGSLLASGALLGAEELARYFPDRNMALFVATWNMQGQKELPASLDEFLLPTEADYTQDLYVIGIQEGCSDRREWETRLQETLGPQYVLLSSAAHGVLYMSLFIRRDLIWFCSEVEYSTVTTRIVSQIKTKGALGVSFTFFGTSFLFITSHFTSGDGKVAERLLDYSRTIQALALPRNVPDTNPYRSSAGDVTTRFDEVFWFGDFNFRLSGGRVAVEAFLKQKPEVDVLALLQHDQLTREMKKGSIFRGFEEAEIHFLPSYKFDIGKDTYDSTSKQRTPSYTDRVLYKSRHKGDICPMKYSSCPGIKTSDHRPVYGLFQVKVRPGRDNIPLAAGKFDRELYLIGIKRRISKEIQRQEALKSQSSKASCTVS | can indeed be released by both Arl2·GppNHp and Arl3·GppNHp | – | – | – | – | –
316 ± 6.3 | 149 ± 19 | Arl2^fl: full-length Arl2, mantGppNHp loaded (protein, left off: His tag, C-terminal, state not stated, full-length Arl2, mantGppNHp loaded) MGLLTILKKMKQKERELRLLMLGLDNAGKTTILKKFNGEDVDTISPTLGFNIKTLEHRGFKLNIWDVGGQKSLRSYWRNYFESTDGLIWVVDSADRQRMQDCQRELQSLLVEERLAGATLLIFANKQDLPGALSCNAIQEALELDSIRSHHWRIQGCSAVTGEDLLPGIDWLLDDISSRVFTAD | – | threefold | 2.25e+06 | 3.09e+06 | 0.33 | 0.98

From PMC5512577, “PDE6δ-mediated sorting of INPP5E into the cilium is determined by cargo-carrier affinity” (Nature Communications, 2016)
